From the Human Domainome abundance scans (Beltran et al. 2025)
± gives the uncertainty stated by the source.

B1: Storkhead-box protein 2, residues 64 to 141; numbered along this chain, Q9P2F5 (parent)
chain: SPISQSQFIPLGEILCLAISAMNSARKPVTQEALMEHLTTCFPGVPTPSQEILRHTLNTLVRERKIYPTPDGYFIVTP

Variants of: B1
Assay: abundance fitness (aPCA) (normalised: wild type 0, dead -1); higher = more abundant; growth selection in yeast, the domain comes from the species named
Conditions: Homo sapiens
SPISQSQFIPLGEILCLAISAMNSARKPVTQEALMEHLTTCFPGVPTPSQHILRHTLNTLVRERKIYPTPDGYFIVTP [E51H] gave an abundance fitness of 0.027 ± 0.18.
With SPISQSQFIPLGEILCLAISAMNSARKPVTQEALMEHLTTCFPGVPTPSQDILRHTLNTLVRERKIYPTPDGYFIVTP [E51D] the abundance fitness was 0.028 ± 0.11.
With SPISQSQFIPLGEILCLAISAMNSARKPVTQEALMEHLTTCFPGVPTPSQTILRHTLNTLVRERKIYPTPDGYFIVTP [E51T] the abundance fitness was -0.085 ± 0.088.
Variant SPISQSQFIPLGEILCLAISAMNSARKPVTQEALMEHLTTCFPGVPTPSQPILRHTLNTLVRERKIYPTPDGYFIVTP [E51P] has an abundance fitness of 0.009 ± 0.052.
Work on SPISQSQFIPLGEILCLAISAMNSARKPVTQEALMEHLTTCFPGVPTPSQSILRHTLNTLVRERKIYPTPDGYFIVTP [E51S] yielded an abundance fitness of -0.039 ± 0.056.
With SPISQSQFIPLGEILCLAISAMNSARKPVTQEALMEHLTTCFPGVPTPSQVILRHTLNTLVRERKIYPTPDGYFIVTP [E51V] the abundance fitness was -0.145 ± 0.051.
With SPISQSQFIPLGEILCLAISAMNSARKPVTQEALMEHLTTCFPGVPTPSQWILRHTLNTLVRERKIYPTPDGYFIVTP [E51W] the abundance fitness was -0.145 ± 0.062.
In the case of SPISQSQFIPLGEILCLAISAMNSARKPVTQEALMEHLTTCFPGVPTPSQNILRHTLNTLVRERKIYPTPDGYFIVTP [E51N], the abundance fitness is reported as -0.301 ± 0.17.
In the case of SPISQSQFIPLGEILCLAISAMNSARKPVTQEALMEHLTTCFPGVPTPSQAILRHTLNTLVRERKIYPTPDGYFIVTP [E51A], the abundance fitness is reported as -0.085 ± 0.048.
SPISQSQFIPLGEILCLAISAMNSARKPVTQEALMEHLTTCFPGVPTPSQRILRHTLNTLVRERKIYPTPDGYFIVTP [E51R] gave an abundance fitness of -0.231 ± 0.049.
SPISQSQFIPLGEILCLAISAMNSARKPVTQEALMEHLTTCFPGVPTPSQYILRHTLNTLVRERKIYPTPDGYFIVTP [E51Y] showed an abundance fitness of -0.161 ± 0.1.
In the case of SPISQSQFIPLGEILCLAISAMNSARKPVTQEALMEHLTTCFPGVPTPSQQILRHTLNTLVRERKIYPTPDGYFIVTP [E51Q], the abundance fitness is reported as -0.099 ± 0.071.
SPISQSQFIPLGEILCLAISAMNSARKPVTQEALMEHLTTCFPGVPTPSQCILRHTLNTLVRERKIYPTPDGYFIVTP [E51C] gave an abundance fitness of -0.104 ± 0.077.
In the case of SPISQSQFIPLGEILCLAISAMNSARKPVTQEALMEHLTTCFPGVPTPSQKILRHTLNTLVRERKIYPTPDGYFIVTP [E51K], the abundance fitness is reported as 0.003 ± 0.098.
SPISQSQFIPLGEILCLAISAMNSARKPVTQEALMEHLTTCFPGVPTPSQGILRHTLNTLVRERKIYPTPDGYFIVTP [E51G] gave an abundance fitness of -0.1 ± 0.044.
Variant SPISQSQFIPLGEILCLAISAMNSARKPVTQEALMEHLTTCFPGVPTPSQFILRHTLNTLVRERKIYPTPDGYFIVTP [E51F] has an abundance fitness of -0.207 ± 0.1.
With SPISQSQFIPLGEILCLAISAMNSARKPVTQEALMEHLTTCFPGVPTPSQMILRHTLNTLVRERKIYPTPDGYFIVTP [E51M] the abundance fitness was -0.203 ± 0.099.
With SPISQSQFIPLGEILCLAISAMNSARKPVTQEALMEHLTTCFPGVPTPSQEPLRHTLNTLVRERKIYPTPDGYFIVTP [I52P] the abundance fitness was -0.654 ± 0.09.
In the case of SPISQSQFIPLGEILCLAISAMNSARKPVTQEALMEHLTTCFPGVPTPSQEELRHTLNTLVRERKIYPTPDGYFIVTP [I52E], the abundance fitness is reported as -0.042 ± 0.057.
With SPISQSQFIPLGEILCLAISAMNSARKPVTQEALMEHLTTCFPGVPTPSQECLRHTLNTLVRERKIYPTPDGYFIVTP [I52C] the abundance fitness was -0.038 ± 0.094.
SPISQSQFIPLGEILCLAISAMNSARKPVTQEALMEHLTTCFPGVPTPSQEKLRHTLNTLVRERKIYPTPDGYFIVTP [I52K] gave an abundance fitness of -0.029 ± 0.072.
For SPISQSQFIPLGEILCLAISAMNSARKPVTQEALMEHLTTCFPGVPTPSQELLRHTLNTLVRERKIYPTPDGYFIVTP [I52L], the abundance fitness was -0.05 ± 0.052.
SPISQSQFIPLGEILCLAISAMNSARKPVTQEALMEHLTTCFPGVPTPSQESLRHTLNTLVRERKIYPTPDGYFIVTP [I52S] showed an abundance fitness of -0.134 ± 0.054.
With SPISQSQFIPLGEILCLAISAMNSARKPVTQEALMEHLTTCFPGVPTPSQEMLRHTLNTLVRERKIYPTPDGYFIVTP [I52M] the abundance fitness was 0.056 ± 0.064.
SPISQSQFIPLGEILCLAISAMNSARKPVTQEALMEHLTTCFPGVPTPSQEVLRHTLNTLVRERKIYPTPDGYFIVTP [I52V] showed an abundance fitness of 0.035 ± 0.044.
For SPISQSQFIPLGEILCLAISAMNSARKPVTQEALMEHLTTCFPGVPTPSQEWLRHTLNTLVRERKIYPTPDGYFIVTP [I52W], the abundance fitness was -0.019 ± 0.056.
Variant SPISQSQFIPLGEILCLAISAMNSARKPVTQEALMEHLTTCFPGVPTPSQEFLRHTLNTLVRERKIYPTPDGYFIVTP [I52F] has an abundance fitness of 0.011 ± 0.088.
In the case of SPISQSQFIPLGEILCLAISAMNSARKPVTQEALMEHLTTCFPGVPTPSQEHLRHTLNTLVRERKIYPTPDGYFIVTP [I52H], the abundance fitness is reported as 0.011 ± 0.092.
With SPISQSQFIPLGEILCLAISAMNSARKPVTQEALMEHLTTCFPGVPTPSQEALRHTLNTLVRERKIYPTPDGYFIVTP [I52A] the abundance fitness was -0.085 ± 0.045.
SPISQSQFIPLGEILCLAISAMNSARKPVTQEALMEHLTTCFPGVPTPSQEGLRHTLNTLVRERKIYPTPDGYFIVTP [I52G] showed an abundance fitness of -0.083 ± 0.036.
SPISQSQFIPLGEILCLAISAMNSARKPVTQEALMEHLTTCFPGVPTPSQERLRHTLNTLVRERKIYPTPDGYFIVTP [I52R] showed an abundance fitness of -0.086 ± 0.045.
SPISQSQFIPLGEILCLAISAMNSARKPVTQEALMEHLTTCFPGVPTPSQETLRHTLNTLVRERKIYPTPDGYFIVTP [I52T] gave an abundance fitness of 0.025 ± 0.069.
With SPISQSQFIPLGEILCLAISAMNSARKPVTQEALMEHLTTCFPGVPTPSQENLRHTLNTLVRERKIYPTPDGYFIVTP [I52N] the abundance fitness was -0.46 ± 0.17.
For SPISQSQFIPLGEILCLAISAMNSARKPVTQEALMEHLTTCFPGVPTPSQEDLRHTLNTLVRERKIYPTPDGYFIVTP [I52D], the abundance fitness was -0.043 ± 0.11.
For SPISQSQFIPLGEILCLAISAMNSARKPVTQEALMEHLTTCFPGVPTPSQEYLRHTLNTLVRERKIYPTPDGYFIVTP [I52Y], the abundance fitness was 0.171 ± 0.27.
